Data as given in patent US20250295801A1, “CD25 ANTIBODIES, ANTIBODY DRUG CONJUGATES, AND USES THEREOF” (Seagen Inc., priority 2024, published 2025).
Positions count from the first letter of the chain named. Where two headings read alike, the source gives them in different places.

How the values were obtained:
[1] = target: T1, recombinant cynomolgus CD25 (cynomolgus, UniProt H6WS54 22-213); assay: saturation binding ELISA on recombinant cynomolgus CD25
T1 construct: also called cyno CD25; cynomolgus CD25/IL2RA
T1 sequence: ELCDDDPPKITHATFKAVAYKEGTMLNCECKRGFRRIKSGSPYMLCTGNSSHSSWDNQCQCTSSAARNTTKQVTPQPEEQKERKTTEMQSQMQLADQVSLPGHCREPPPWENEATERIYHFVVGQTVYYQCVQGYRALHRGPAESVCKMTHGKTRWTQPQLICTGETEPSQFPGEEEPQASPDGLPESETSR
Procedure: (§1) Saturation binding ELISA experiments were performed using soluble recombinant antigens, which were diluted to an appropriate concentration in 50 mM carbonate buffer, pH 9.6. To each well of a 96- or 384-well Maxisorb ELISA plate was added 100 μL of soluble antigen. The plate was sealed and stored at 4° C. overnight. The plate was then washed 3-5 times with PBS-T was buffer (PBS, pH 7.4+0.05% Tween-20). The wells were blocked using 300 μL/well of PBS-T buffer containing BSA for 1 hour at room temperature, then washed 3-5 times with PBS-T. Dilutions of antibodies were prepared in blocking buffer and added to each well in a volume of 100 μL. The antibodies were incubated for 1 hour at room temperature, and then washed 3-5 times with PBS-T. HRP-conjugated secondary antibodies (anti-human Fc) were then added and incubated for 1 hour at room temperature. The plate was washed 3-5 times with PBS-T. The ELISA was developed by adding 100 μL of TMB solution and incubating for 3-15 min at room temperature. To stop the reaction, 100 μL of 1 N sulfuric acid was added to each well. The absorbance at 450 nm was determined using a Spectramax 190 plate reader (Molecular Biosciences) and the data plotted using GraphPad Prism 6.

[2] = target: T2, human CD25 on CD25 expressing cells (human, UniProt P01589 22-272); assay: saturation binding by flow cytometry on L540cy cells (CD25: 55,000 per cell), MFI (Gmean)
T2 construct: Endogenous CD25 on human lymphoma lines (L540cy, Karpas-299) and on human Treg cells; also called CD25 on L540cy cells; CD25 on Karpas-299 cells
T2 sequence: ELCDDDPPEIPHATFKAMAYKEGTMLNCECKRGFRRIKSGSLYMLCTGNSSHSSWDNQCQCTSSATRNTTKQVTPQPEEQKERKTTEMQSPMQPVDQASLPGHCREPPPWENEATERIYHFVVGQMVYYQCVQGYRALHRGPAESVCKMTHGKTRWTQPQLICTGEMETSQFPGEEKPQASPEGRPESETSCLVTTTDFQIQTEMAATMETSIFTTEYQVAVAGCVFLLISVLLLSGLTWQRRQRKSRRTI
Procedure: (§2) For cellular binding analysis by FACS, cells expressing the target protein of interest (2×10⁵) were treated with a serial dilution of indicated antibody in staining buffer (PBS, 5% FBS, 0.2% NaN₃). Samples were incubated for 1 hour on ice and washed twice with ice-cold staining buffer. Cells were resuspended with anti-human IgG-AF488 or IgG-AF647 (JacksonImmunoResearch), 1:200 dilution in staining buffer) for 1 hour on ice. Cells were washed twice with ice cold staining buffer and resuspended in staining buffer. Labeled cells were examined by flow cytometry on an Invitrogen Attune NxT flow cytometer gated to exclude nonviable cells, and the data analyzed using FlowJo10 software. When determined, the KD was calculated using GraphPad Prism 6 using non-linear regression.
(§3) Saturation binding analysis was also performed using high CD25 expressing L540cy cells.

[3] = target: T3, recombinant human CD25 (human, UniProt P01589 22-213, limits assumed, biotinylated in the Octet kinetic assay (site not stated)); assay: BLI kinetics (Octet RED384), biotinylated hCD25 on SAX tips, 1:1 global fit
T3 construct: Soluble recombinant antigen; It was coated on plates for ELISA and used as bought biotinylated protein for BLI; The ELISA and BLI reagents may be different constructs; also called hCD25; CD25/IL2RA
T3 sequence: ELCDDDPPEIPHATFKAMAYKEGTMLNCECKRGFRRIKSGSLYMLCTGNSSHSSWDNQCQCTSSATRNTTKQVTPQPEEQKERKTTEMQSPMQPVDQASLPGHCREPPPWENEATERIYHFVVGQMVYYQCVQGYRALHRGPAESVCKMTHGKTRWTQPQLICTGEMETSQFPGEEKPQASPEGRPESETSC

[4] = target: T3, recombinant human CD25; assay: saturation binding ELISA on recombinant human CD25
Procedure: as §1

[5] = target: T1, recombinant cynomolgus CD25; assay: saturation binding ELISA on plate-coated recombinant cynomolgus CD25
Procedure: as §1

[6] = target: T2, human CD25 on CD25 expressing cells; assay: saturation binding by flow cytometry on L540cy cells (CD25: 55,000 per cell), MFI (Gmean); remark: listed apart in the source
Procedure: as §2, §3

[7] = target: T3, recombinant human CD25; assay: saturation binding ELISA on plate-coated recombinant human CD25
Procedure: as §1

[8] = target: T1, recombinant cynomolgus CD25; assay: ELISA on plate-coated cynomolgus CD25
Procedure: as §1

[9] = target: T3, recombinant human CD25; assay: saturation binding ELISA on recombinant human CD25; remark: listed apart in the source
Procedure: as §1

[10] = target: T3, recombinant human CD25; assay: saturation binding ELISA on recombinant human CD25; remark: listed apart in the source
Procedure: as §1

[11] = target: T3, recombinant human CD25; assay: saturation binding ELISA on recombinant human CD25; EC50 relative to SG25Ab-9
Procedure: as §1

[12] = target: T1, recombinant cynomolgus CD25; assay: saturation binding ELISA on recombinant cynomolgus CD25; EC50 relative to SG25Ab-9
Procedure: as §1

[13] = target: T2, human CD25 on CD25 expressing cells; assay: saturation binding by flow cytometry on Karpas 299 cells (CD25: 123,000 per cell), GeoMean MFI
Procedure: as §2

[14] = test system: recombinant cyno CD25; assay: Saturation binding analysis by ELISA; parameters: species or system cynomolgus; conditions: compared with human CD25, FIG. 1A, 1B, 7
Procedure: Saturation binding ELISA experiments were performed using soluble recombinant antigens, which were diluted to an appropriate concentration in 50 mM carbonate buffer, pH 9.6. To each well of a 96- or 384-well Maxisorb ELISA plate was added 100 μL of soluble antigen. The plate was sealed and stored at 4° C. overnight. The plate was then washed 3-5 times with PBS-T was buffer (PBS, pH 7.4+0.05% Tween-20). The wells were blocked using 300 μL/well of PBS-T buffer containing BSA for 1 hour at room temperature, then washed 3-5 times with PBS-T. Dilutions of antibodies were prepared in blocking buffer and added to each well in a volume of 100 μL. The antibodies were incubated for 1 hour at room temperature, and then washed 3-5 times with PBS-T. HRP-conjugated secondary antibodies (anti-human Fc) were then added and incubated for 1 hour at room temperature. The plate was washed 3-5 times with PBS-T. The ELISA was developed by adding 100 μL of TMB solution and incubating for 3-15 min at room temperature. To stop the reaction, 100 μL of 1 N sulfuric acid was added to each well. The absorbance at 450 nm was determined using a Spectramax 190 plate reader ([…]) and the data plotted using GraphPad Prism 6.
Saturation binding analysis of CD25 antibody SG25Ab-9 and detuned CD25 antibody SG25Ab-9 YH98A on recombinant human and cyno CD25 was assessed by ELISA.

[15] = test system: CD25 expressing cells; assay: Internalization into CD25 expressing cells; format: cell-based, human; conditions: FIG. 1E

B1: CD25 antibody SG25Ab-9 (antibody, human IgG1, lambda, V domains shown)
VH: QVQLVQSGAEVKKPGESLKISCKGSGYSSTSYWIGWVRQMPGKGLEWMGIIYPGDSDTRYSPSFQGQVTISADKSISTAYLQWSSLKASDTAMYYCARLGSYYAFDIWGRGTMVTVSS
VL: QSALTQPASVSASPGQSITISCTGTSSDVGAYIYVSWYQQLSGKPPKLILYDVSKRPSGISDRFSGSKSGNTASLTISGLQADDEADYYCSSYTRSSTWVFGGGTQLTVLG
notes: Fully human antibody from a phage scFv library, expressed as IgG1 with a lambda light chain; HC and LC are the entries without signal peptide; also called SG25Ab-9 IgG1; SGAb25-9
With B1 the EC50 [1] was 250 pM, the “EC50 (read off the curve)” value [2] was about 1000 pM and the Kd [3] was 100 pM. The koff [3] was 2.7e-05 s⁻¹, the kon [3] was 210000 M⁻¹ s⁻¹ and the EC50 [4] was 100 pM. The “EC50 (read off the curve)” value [5] was 100 to 200 pM, the “EC50 (read off the curve)” value [6] was about 800 pM and the “EC50 (read off the curve)” value [7] was 100 to 200 pM. The “EC50 (read off the curve)” value [8] was 100 to 200 pM, the “EC50 (read off the curve)” value [9] was 100 to 200 pM and the “EC50 (read off the curve)” value [10] was 100 to 200 pM.

B2: detuned CD25 antibody SG25Ab-9 YH98A (antibody, human IgG1, lambda, V domains shown)
VH: B1 VH with Y102A
VL: B1 VL
notes: IgG1; Tyr to Ala in CDR-H3 (YH98A); also called SGAb25-9 YH98A
Work on B2 yielded an EC50 [1] of about 238000 pM, a Kd [3] of 14000 pM and a koff [3] of 0.0043 s⁻¹. For the same molecule, the kon [3] was 310000 M⁻¹ s⁻¹, the “Fold Change” value [11] was about 1160 and the EC50 [4] was about 116000 pM. The “Fold Change” value [12] was about 950.

B3: CD25 antibody SG25Ab-4 (antibody, human IgG1, lambda, V domains shown)
VH: EVQLVQSGAEVKKPGESLKISCKGPEYSFNRYWIAWVRQRPGKGLEWMGIIYPGDSDARYSPTFEGHVTLSADMSLTTAYLQWSSLRASDTAMYYCARLGSYYAFDIWGKGTMVTVSS
VL: QSALTQPASVSGSPGQSITIFCTGTSSDVGGYNYVSWYQQHPGKAPKLMIYDVSKRPSGVSNRFSGSKSGNTASLTISGLQAEDEADYYCSSYTSSSTWVFGGGTQLTVLS
notes: IgG1 format; also called SGAb25-4
With B3 the binding result [13] was “binds” and the “EC50 (read off the curve)” value [8] was about 100 pM.

B4: SG25Ab-4: human anti-CD25 IgG1 antibody; VH SEQ ID NO: 31, VL SEQ ID NO: 32 (antibody, V domains shown)
VH: B3 VH
VL: QSALTQPASVSGSPGQSITIFCTGTSSDVGGYNYVSWYQQHPGKAPKLMIYDVSKRPSGVSNRFSGSKSGNTASLTISGLQAEDEADYYCSSYTSSSTWVFGGGTQLTVL
B4 was tested, and the “binding to recombinant cynomolgus CD25” value [14] was “efficiently bound cynomolgus CD25” and the “internalization into CD25 expressing cells” value [15] was “efficiently internalized into CD25 expressing cells”.
